The values below are quoted from earlier work in publication PMC13242717.

The target of the series is spike protein (SARS-CoV-2) (UniProt P0DTC2).

What is called Kd is the concentration at which binding is half-saturated. For the substance spike protein (from UniProt P0DTC2), the Kd was 300 nM.
